Results taken from US20260242478A1 (published 2026).
Where no end group is shown, it is not given here.

B1: Phage-2613 (peptide)
peptide: MYNLCTPEWMCAGF
modifications: cysteine pairing not given here; also: displayed on phage pIII, linker not given here
notes: Clonal phage of the peptide-180 library; not shown: fused to pIII of the bacteriophage
B2: Phage-2611 (peptide)
peptide: VEKWCIPEWMCETS
modifications: cysteine pairing not given here; also: displayed on phage pIII, linker not given here
notes: as for B1
B3: Phage-2618 (peptide)
peptide: AFKWCIPNWMCASQ
modifications: cysteine pairing not given here; also: fused to phage pIII (clonal phage display)
notes: as for B1
B4: Phage-2617 (peptide)
peptide: YTPWCKPAWMCSVS
modifications: cysteine pairing not given here; also: displayed on phage pIII, linker not given here
notes: as for B1
B5: Phage-2607 (peptide)
peptide: QMKLCIPQWMCVDH
modifications: cysteine pairing not given here; also: displayed on phage as pIII fusion, linker and pIII sequence not given here
notes: as for B1
B6: Phage-2604 (peptide)
peptide: VWQLCIPPWMCQFE
modifications: cysteine pairing not given here; also: displayed on phage as pIII fusion, linker and pIII sequence not given here
notes: as for B1
B7: Phage-2615 (peptide)
peptide: HEKWCIPPWMCEAN
modifications: cysteine pairing not given here; also: fused to phage pIII (clonal phage display)
notes: as for B1
B8: Phage-2608 (peptide)
peptide: LHKLCIPEWMCEYY
modifications: cysteine pairing not given here; also: displayed on phage as pIII fusion, linker and pIII sequence not given here
notes: as for B1
B9: Phage-2609 (peptide)
peptide: MVKWCTPAWMCTLE
modifications: cysteine pairing not given here; also: displayed on phage as pIII fusion, linker and pIII sequence not given here
notes: as for B1
B10: Phage-2606 (peptide)
peptide: VDKWCIPAWMCDRS
modifications: cysteine pairing not given here; also: displayed on phage as pIII fusion, linker and pIII sequence not given here
notes: as for B1
B11: Phage-2612 (peptide)
peptide: FANWCTPSWMCVGM
modifications: cysteine pairing not given here; also: displayed on phage pIII, linker not given here
notes: as for B1
B12: Phage-2614 (peptide)
peptide: HVNWCTPKWMCSGF
modifications: cysteine pairing not given here; also: displayed on phage pIII, linker not given here
notes: as for B1
B13: Phage-2616 (peptide)
peptide: QDNWCIPRWMCEAM
modifications: cysteine pairing not given here; also: displayed on phage pIII, linker not given here
notes: as for B1
B14: Phage-2610 (peptide)
peptide: SSMLCIPPWMCEQS
modifications: cysteine pairing not given here; also: displayed on phage as pIII fusion, linker and pIII sequence not given here
notes: as for B1
B15: Phage-2605 (peptide)
peptide: VMKWCTPSWMCEHI
modifications: cysteine pairing not given here; also: displayed on phage as pIII fusion, linker and pIII sequence not given here
notes: as for B1
B16: Phage-2587 (peptide)
peptide: VGKWCVPMWMCATD
modifications: cysteine pairing not given here; also: fused to phage pIII, linker and fusion site not given here
notes: Clonal phage displaying the peptide, tested as crude supernatant; also called peptide-180 library clone; not shown: fused to the pIII filament protein of the bacteriophage
B17: Phage-2583 (peptide)
peptide: EVMWCRPAWMCDGI
notes: as for B16
B18: Phage-2584 (peptide)
peptide: VVKWCKPAWMCEQA
notes: as for B16
B19: Phage-2586 (peptide)
peptide: ETQMCVPQWMCWGI
notes: as for B16
B20: Phage-2585 (peptide)
peptide: DLKRCIPDWMCAVA
modifications: cysteine pairing not given here; also: fused to phage pIII, linker and fusion site not given here
notes: as for B16

Biological target: T1, PSMA Fab (biotinylated (site not stated))
T1 construct: also called Anti-PSMA Fab; 006 PSMA Fab
Test: clonal phage ELISA on biotinylated PSMA Fab captured on neutravidin plates, anti-M13 HRP detection;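 further: crude clonal phage supernatants tested, before phage were added, wells were pretreated with PSMA antigen in blocking buffer or with blocking buffer only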

Binder | Phage binding ELISA signal, Anti-PSMA Fab
B1 | 1.02
B2 | 1.02
B3 | 1.01
B4 | 1.01
B5 | 1.03
B6 | 1.03
B7 | 1.01
B8 | 1.03
B9 | 1.02
B10 | 1.03
B11 | 1.02
B12 | 1.02
B13 | 1.01
B14 | 1.02
B15 | 1.03

Biological target: T2, PSMA Fab (biotinylated (site not stated))
T2 construct: also called Anti-PSMA Fab; 006 PSMA Fab
Test: clonal phage ELISA; biotinylated PSMA Fab on neutravidin plate; bound phage detected with anti-M13-HRP

Binder | Phage binding ELISA signal, Anti-PSMA Fab
VTKLCIPEWMCASD (cysteine pairing not given here; also: displayed on phage as pIII fusion) [Phage-2630] | 0.975
LNNWCTPLWMCQMF [Phage-2628] | 0.979
PETRCIPSWMCSGM [Phage-2625] | 0.989
IANWCTPQWMCDGF [Phage-2620] | 0.997
VPKWCTPDWMCYGM [Phage-2621] | 0.996
WEKWCTPSGMCDAR [Phage-2627] | 0.982
MTQWCIPEWMCSEE [Phage-2624] | 0.99
VMSWCVPAWMCETP [Phage-2631] | 0.973
MNKWCTPAWMCEVV (cysteine pairing not given here; also: displayed on phage as pIII fusion) [Phage-2619] | 0.998
VEMLCKPAWMCANQ (cysteine pairing not given here; also: displayed on phage as pIII fusion) [Phage-2626] | 0.986
FHMWCTPAWMCADQ (cysteine pairing not given here; also: displayed on phage as pIII fusion) [Phage-2622] | 0.996
VVPRCTPPWMCLVS [Phage-2629] | 0.976
TPKWCTPPWMCQHG [Phage-2623] | 0.994

Biological target: T2, PSMA Fab
Test: clonal phage ELISA; PSMA Fab wells pre-incubated with PSMA antigen as competitor; anti-M13-HRP detection
Procedure: (§1) Clonal phage were harvested as crude supernatants and screened via standard ELISAs. […] Prior to the addition of clonal phage. wells were incubated with blocking buffer and PSMA antigen or blocking buffer alone. Without washing or aspirating, clonal phage supernatants were then added to the wells and incubated for a short time. Wells were then washed followed by detection of bound phage using a horse radish conjugated anti-M13 antibody.

Binder | Phage binding ELISA signal, Anti-PSMA Fab with PSMA antigen
VTKLCIPEWMCASD (cysteine pairing not given here; also: displayed on phage as pIII fusion) [Phage-2630] | 0.0961
LNNWCTPLWMCQMF [Phage-2628] | 0.201
PETRCIPSWMCSGM [Phage-2625] | 0.0912
IANWCTPQWMCDGF [Phage-2620] | 0.0631
VPKWCTPDWMCYGM [Phage-2621] | 0.0681
WEKWCTPSGMCDAR [Phage-2627] | 0.106
MTQWCIPEWMCSEE [Phage-2624] | 0.0648
VMSWCVPAWMCETP [Phage-2631] | 0.0614
MNKWCTPAWMCEVV (cysteine pairing not given here; also: displayed on phage as pIII fusion) [Phage-2619] | 0.095
VEMLCKPAWMCANQ (cysteine pairing not given here; also: displayed on phage as pIII fusion) [Phage-2626] | 0.0829
FHMWCTPAWMCADQ (cysteine pairing not given here; also: displayed on phage as pIII fusion) [Phage-2622] | 0.126
VVPRCTPPWMCLVS [Phage-2629] | 0.0785
TPKWCTPPWMCQHG [Phage-2623] | 0.0728

Biological target: T3, PSMA Fab (biotinylated (site not stated))
T3 construct: also called Anti-PSMA Fab; 006 PSMA Fab
Test: clonal phage ELISA on captured PSMA Fab pre-incubated with PSMA antigen (competitor: PSMA), anti-M13-HRP detection

Binder | phage binding ELISA signal in presence of PSMA
B16 | 0.0735
B17 | 0.0623
B18 | 0.0788
B19 | 0.0571
B20 | 0.0617

Biological target: T1, PSMA Fab
Test: clonal phage ELISA on captured PSMA Fab, wells pre-incubated with PSMA antigen as competitor; column meaning inferred
Procedure: as §1

Binder | Phage binding ELISA signal, Anti-PSMA Fab in presence of PSMA antigen
B1 | 0.0554
B2 | 0.0624
B3 | 0.0999
B4 | 0.0806
B5 | 0.0553
B6 | 0.113
B7 | 0.0603
B8 | 0.0595
B9 | 0.0801
B10 | 0.0604
B11 | 0.0676
B12 | 0.0894
B13 | 0.0626
B14 | 0.0682
B15 | 0.0582

Biological target: T3, PSMA Fab
Test: clonal phage ELISA on biotinylated PSMA Fab captured on neutravidin plates, blocking buffer alone, anti-M13-HRP detection
Procedure: as §1

Binder | phage binding ELISA signal
B16 | 1.06
B17 | 1.07
B18 | 1.07
B19 | 1.07
B20 | 1.07
